Reference: the supplement of paper PMC7125110
± gives the standard error. Variants at the floor of the assay were thinned out.

B1: glmS ribozyme (parent)
chain: AUAAAAGCGCCAGAACUACAGAAAUGUAGUUGACGAGGAGGAGGUUUAUCGAAUUUUCGGCGGAUGCCUCCAAA

Variants of: B1
Assay: self-cleavage kobs at 2500 uM GlcN6P; higher = faster cleavage; RNA array
Settings: with glucosamine-6-phosphate
Outline: (§1)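 Tiles of sequenced MiSeq chips were imaged over ~14 h at 37 °C. On them, barcoded ribozyme variants had been transcribed in situ by E. coli RNA polymerase and were tracked via a hybridised Cy3 probe while glucosamine-6-phosphate (40 μM to 10 mM) in HEPES/KCl/Mg(OAc)2 buffer flowed in. Per-tile medians, normalised to baseline and to non-cleaving reference variants, were fit to one- or two-exponential decays for kobs, and weighted Michaelis–Menten fits gave kcat and KM.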
In the case of U31A U46C A53G C70A, the “self-cleavage kobs at 2500 uM GlcN6P” value is reported as 4.56e-05 ± 1.7e-05 s⁻¹.
With U30A G43U the “self-cleavage kobs at 2500 uM GlcN6P” value was less than 1e-05 s⁻¹.
In the case of A12G G63A C67A, the “self-cleavage kobs at 2500 uM GlcN6P” value is reported as less than 1e-05 s⁻¹.
For G35C G40C C70U, the “self-cleavage kobs at 2500 uM GlcN6P” value was less than 1e-05 s⁻¹.
For A36U U65A C68U, the “self-cleavage kobs at 2500 uM GlcN6P” value was less than 1e-05 s⁻¹.
With A12G C16G G44U the “self-cleavage kobs at 2500 uM GlcN6P” value was less than 1e-05 s⁻¹.
With C10U C16G C34G A39G the “self-cleavage kobs at 2500 uM GlcN6P” value was less than 1e-05 s⁻¹.
For A15U G40U U49A G60U, the “self-cleavage kobs at 2500 uM GlcN6P” value was less than 1e-05 s⁻¹.
For G40A G62U C70G, the “self-cleavage kobs at 2500 uM GlcN6P” value was less than 1e-05 s⁻¹.
For C8G A33C U56C G63U, the “self-cleavage kobs at 2500 uM GlcN6P” value was less than 1e-05 s⁻¹.
In the case of G35U G40U U49G, the “self-cleavage kobs at 2500 uM GlcN6P” value is reported as less than 1e-05 s⁻¹.
With A53C U65C the “self-cleavage kobs at 2500 uM GlcN6P” value was 0.000159 ± 3.9e-05 s⁻¹.
In the case of G13C A14G C68U, the “self-cleavage kobs at 2500 uM GlcN6P” value is reported as 8.88e-05 ± 2.7e-05 s⁻¹.
C11U G51U C70U was tested, and the “self-cleavage kobs at 2500 uM GlcN6P” value was 6.92e-05 ± 3.4e-05 s⁻¹.
For G7A U46C A52U C58A, the “self-cleavage kobs at 2500 uM GlcN6P” value was less than 1e-05 s⁻¹.
For G40U U47G G51C U65A, the “self-cleavage kobs at 2500 uM GlcN6P” value was less than 1e-05 s⁻¹.
In the case of G59C C61U C67A, the “self-cleavage kobs at 2500 uM GlcN6P” value is reported as 4.78e-05 ± 1.7e-05 s⁻¹.
In the case of A6U C11A G62A, the “self-cleavage kobs at 2500 uM GlcN6P” value is reported as less than 1e-05 s⁻¹.
G37A C68A C70U was tested, and the “self-cleavage kobs at 2500 uM GlcN6P” value was less than 1e-05 s⁻¹.
With G32A A42U U46C the “self-cleavage kobs at 2500 uM GlcN6P” value was less than 1e-05 s⁻¹.
For G7C A52U U55G C68G, the “self-cleavage kobs at 2500 uM GlcN6P” value was less than 1e-05 s⁻¹.
In the case of C11A G40C G62A C68U, the “self-cleavage kobs at 2500 uM GlcN6P” value is reported as less than 1e-05 s⁻¹.
With A12G U56C C67U the “self-cleavage kobs at 2500 uM GlcN6P” value was less than 1e-05 s⁻¹.
With A12U A39U G63A the “self-cleavage kobs at 2500 uM GlcN6P” value was less than 1e-05 s⁻¹.
With U30G U57A G60U the “self-cleavage kobs at 2500 uM GlcN6P” value was less than 1e-05 s⁻¹.
With C8U A42C U46A U55A the “self-cleavage kobs at 2500 uM GlcN6P” value was less than 1e-05 s⁻¹.
For G13U U30C G32C, the “self-cleavage kobs at 2500 uM GlcN6P” value was 6.71e-05 ± 2.9e-05 s⁻¹.
In the case of G7C A42G U69G, the “self-cleavage kobs at 2500 uM GlcN6P” value is reported as less than 1e-05 s⁻¹.
In the case of C8U G32A A33U G35C G37U A39U G51C G60C, the “self-cleavage kobs at 2500 uM GlcN6P” value is reported as less than 1e-05 s⁻¹.
For G21A A48C, the “self-cleavage kobs at 2500 uM GlcN6P” value was 0.000242 ± 7.9e-05 s⁻¹.
In the case of G13C U45A U46C, the “self-cleavage kobs at 2500 uM GlcN6P” value is reported as 5.29e-05 ± 1.6e-05 s⁻¹.
For G7U G9C U57A G60C, the “self-cleavage kobs at 2500 uM GlcN6P” value was less than 1e-05 s⁻¹.
In the case of G29A G37U U57C, the “self-cleavage kobs at 2500 uM GlcN6P” value is reported as less than 1e-05 s⁻¹.
For G9U G29U A53G, the “self-cleavage kobs at 2500 uM GlcN6P” value was less than 1e-05 s⁻¹.
In the case of C50A U55G C67G, the “self-cleavage kobs at 2500 uM GlcN6P” value is reported as 9.38e-05 ± 3.7e-05 s⁻¹.
With C8U G37A C50G A64G C71A the “self-cleavage kobs at 2500 uM GlcN6P” value was 0.000244 ± 6.7e-05 s⁻¹.
In the case of G13U U45A A52G, the “self-cleavage kobs at 2500 uM GlcN6P” value is reported as 5.37e-05 ± 2.1e-05 s⁻¹.
In the case of C34A A39U C50A A53G C68U, the “self-cleavage kobs at 2500 uM GlcN6P” value is reported as less than 1e-05 s⁻¹.
With A15U G38U U69G the “self-cleavage kobs at 2500 uM GlcN6P” value was 0.000183 ± 4.2e-05 s⁻¹.
C16U U56C G63A G66U was tested, and the “self-cleavage kobs at 2500 uM GlcN6P” value was less than 1e-05 s⁻¹.
C10G A12C G44A C68U was tested, and the “self-cleavage kobs at 2500 uM GlcN6P” value was less than 1e-05 s⁻¹.
For A6G A33C U46G, the “self-cleavage kobs at 2500 uM GlcN6P” value was less than 1e-05 s⁻¹.
G9U A36G U49A G62U C67U C70G was tested, and the “self-cleavage kobs at 2500 uM GlcN6P” value was less than 1e-05 s⁻¹.
C8U A36G C50A G51A C68U C70A was tested, and the “self-cleavage kobs at 2500 uM GlcN6P” value was 0.000112 ± 4.4e-05 s⁻¹.
In the case of U46A U49A G63C C67G, the “self-cleavage kobs at 2500 uM GlcN6P” value is reported as less than 1e-05 s⁻¹.
With C8U A12C U30A the “self-cleavage kobs at 2500 uM GlcN6P” value was less than 1e-05 s⁻¹.
For U30A G38U G40C, the “self-cleavage kobs at 2500 uM GlcN6P” value was less than 1e-05 s⁻¹.
C16G G37A A48G G60A U65G C67U was tested, and the “self-cleavage kobs at 2500 uM GlcN6P” value was less than 1e-05 s⁻¹.
With G9U A12C A33G A53U the “self-cleavage kobs at 2500 uM GlcN6P” value was less than 1e-05 s⁻¹.
For G29A A33G G38A G60U, the “self-cleavage kobs at 2500 uM GlcN6P” value was less than 1e-05 s⁻¹.
In the case of U47A U57C, the “self-cleavage kobs at 2500 uM GlcN6P” value is reported as 0.000104 ± 2.6e-05 s⁻¹.
In the case of A6U G37C A64G, the “self-cleavage kobs at 2500 uM GlcN6P” value is reported as less than 1e-05 s⁻¹.
For A15U A33U G62A, the “self-cleavage kobs at 2500 uM GlcN6P” value was less than 1e-05 s⁻¹.
A14C C16U G40C G44A G60A was tested, and the “self-cleavage kobs at 2500 uM GlcN6P” value was less than 1e-05 s⁻¹.
G32U A36U G37C U47G A52C C67G was tested, and the “self-cleavage kobs at 2500 uM GlcN6P” value was less than 1e-05 s⁻¹.
C8U G9U U56A C70G was tested, and the “self-cleavage kobs at 2500 uM GlcN6P” value was less than 1e-05 s⁻¹.
For G9A C16G A33C G51U U54A C58U, the “self-cleavage kobs at 2500 uM GlcN6P” value was less than 1e-05 s⁻¹.
In the case of G29C A48C U49C, the “self-cleavage kobs at 2500 uM GlcN6P” value is reported as less than 1e-05 s⁻¹.
G9A A14G A33C G38U U57A was tested, and the “self-cleavage kobs at 2500 uM GlcN6P” value was less than 1e-05 s⁻¹.
With G7C A14C G60C the “self-cleavage kobs at 2500 uM GlcN6P” value was less than 1e-05 s⁻¹.
A12G U30G U46G was tested, and the “self-cleavage kobs at 2500 uM GlcN6P” value was less than 1e-05 s⁻¹.
With C11G G29U C50U C67U the “self-cleavage kobs at 2500 uM GlcN6P” value was 0.0015 ± 0.00049 s⁻¹.
For U45C A48C U65G C70G, the “self-cleavage kobs at 2500 uM GlcN6P” value was less than 1e-05 s⁻¹.
For G7U A36U C68U, the “self-cleavage kobs at 2500 uM GlcN6P” value was less than 1e-05 s⁻¹.
In the case of A33G U47C U54C G62A, the “self-cleavage kobs at 2500 uM GlcN6P” value is reported as less than 1e-05 s⁻¹.
U47C A52U A64G was tested, and the “self-cleavage kobs at 2500 uM GlcN6P” value was 3.84e-05 ± 1.6e-05 s⁻¹.
C10A C11A G38C G41A was tested, and the “self-cleavage kobs at 2500 uM GlcN6P” value was less than 1e-05 s⁻¹.
With A14U C16U C58U the “self-cleavage kobs at 2500 uM GlcN6P” value was 5.54e-05 ± 1.5e-05 s⁻¹.
In the case of G9A G13C C34A G40C C50U C71G, the “self-cleavage kobs at 2500 uM GlcN6P” value is reported as less than 1e-05 s⁻¹.
U30G U55C U65A C71U was tested, and the “self-cleavage kobs at 2500 uM GlcN6P” value was 8.23e-05 ± 1.7e-05 s⁻¹.
For G35C A36U G41C G51U U65G, the “self-cleavage kobs at 2500 uM GlcN6P” value was less than 1e-05 s⁻¹.
G9U G29A G63A was tested, and the “self-cleavage kobs at 2500 uM GlcN6P” value was less than 1e-05 s⁻¹.
In the case of G29C U31C C70A, the “self-cleavage kobs at 2500 uM GlcN6P” value is reported as 7.34e-05 ± 3.4e-05 s⁻¹.
With G13C U31A A64G the “self-cleavage kobs at 2500 uM GlcN6P” value was 9.93e-05 ± 3e-05 s⁻¹.
For A12U C16A A42U G51U, the “self-cleavage kobs at 2500 uM GlcN6P” value was less than 1e-05 s⁻¹.
For G35U C50G G66A, the “self-cleavage kobs at 2500 uM GlcN6P” value was 7.38e-05 ± 3.6e-05 s⁻¹.
U31A G41U G59U was tested, and the “self-cleavage kobs at 2500 uM GlcN6P” value was less than 1e-05 s⁻¹.
With C8G A42G A52U the “self-cleavage kobs at 2500 uM GlcN6P” value was less than 1e-05 s⁻¹.
With G29A U69C C70U the “self-cleavage kobs at 2500 uM GlcN6P” value was 5.97e-05 ± 1.6e-05 s⁻¹.

Variants of: B1
Assay: self-cleavage kobs at 10000 uM GlcN6P; higher = faster cleavage; RNA array
Settings: with glucosamine-6-phosphate
Outline: as §1
In the case of U30A G43U, the “self-cleavage kobs at 10000 uM GlcN6P” value is reported as less than 1e-05 s⁻¹.
In the case of U45C U49G, the “self-cleavage kobs at 10000 uM GlcN6P” value is reported as 3.08e-05 ± 1.4e-05 s⁻¹.
For G40U U47G G51C U65A, the “self-cleavage kobs at 10000 uM GlcN6P” value was less than 1e-05 s⁻¹.
For G29A U49G U56G, the “self-cleavage kobs at 10000 uM GlcN6P” value was 3.31e-05 ± 1.3e-05 s⁻¹.
For G26U G44U, the “self-cleavage kobs at 10000 uM GlcN6P” value was 0.000189 ± 3.6e-05 s⁻¹.
With A6G A33C U46G the “self-cleavage kobs at 10000 uM GlcN6P” value was less than 1e-05 s⁻¹.
For U47A U57C, the “self-cleavage kobs at 10000 uM GlcN6P” value was 0.000159 ± 2.5e-05 s⁻¹.
In the case of G35C A36U G41C G51U U65G, the “self-cleavage kobs at 10000 uM GlcN6P” value is reported as less than 1e-05 s⁻¹.
G38U A53U was tested, and the “self-cleavage kobs at 10000 uM GlcN6P” value was less than 1e-05 s⁻¹.
G29A U69C C70U was tested, and the “self-cleavage kobs at 10000 uM GlcN6P” value was 7.72e-05 ± 1.5e-05 s⁻¹.
